Measurements as given in PMC5481814, “Stapled Voltage-Gated Calcium Channel (CaV) α-Interaction Domain (AID) Peptides Act As Selective Protein–Protein Interaction Inhibitors of CaV Function” (ACS Chemical Neuroscience, 2017).
Each block holds one substance with its values, some of them ahead of it.

What was measured:
[1] = target: CaVβ2a core (unimolecular CaVβ2a construct) (rat); test: ITC; 20 μM AID peptide titrated into 2 μM CaVβ2a core; 15 °C; 150 mM KCl, 10 mM potassium phosphate, pH 7.3; single site binding model
[2] = target: CaVβ2a core (Rattus norvegicus) (UniProt Q8VGC3); test: ITC; settings: cited from earlier work
Sequence of CaVβ2a core (Rattus norvegicus) (Q8VGC3 68-476): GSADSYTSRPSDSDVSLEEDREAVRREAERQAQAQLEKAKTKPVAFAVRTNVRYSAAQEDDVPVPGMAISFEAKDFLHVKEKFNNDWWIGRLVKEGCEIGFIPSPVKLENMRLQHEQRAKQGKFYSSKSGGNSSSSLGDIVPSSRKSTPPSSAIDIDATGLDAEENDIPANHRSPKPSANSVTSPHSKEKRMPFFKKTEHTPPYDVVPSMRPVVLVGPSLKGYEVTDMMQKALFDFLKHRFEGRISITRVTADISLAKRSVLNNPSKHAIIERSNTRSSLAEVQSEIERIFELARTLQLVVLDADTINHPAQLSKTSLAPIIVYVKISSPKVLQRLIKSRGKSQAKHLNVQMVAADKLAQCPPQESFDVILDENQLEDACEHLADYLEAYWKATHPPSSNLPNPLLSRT

[3] = target: Human CaV1.2 (α1C77) (human) (UniProt Q13936)
Sequence of Human CaV1.2 (α1C77) (human) (Q13936 other isoform, or with tags, fused parts or gaps): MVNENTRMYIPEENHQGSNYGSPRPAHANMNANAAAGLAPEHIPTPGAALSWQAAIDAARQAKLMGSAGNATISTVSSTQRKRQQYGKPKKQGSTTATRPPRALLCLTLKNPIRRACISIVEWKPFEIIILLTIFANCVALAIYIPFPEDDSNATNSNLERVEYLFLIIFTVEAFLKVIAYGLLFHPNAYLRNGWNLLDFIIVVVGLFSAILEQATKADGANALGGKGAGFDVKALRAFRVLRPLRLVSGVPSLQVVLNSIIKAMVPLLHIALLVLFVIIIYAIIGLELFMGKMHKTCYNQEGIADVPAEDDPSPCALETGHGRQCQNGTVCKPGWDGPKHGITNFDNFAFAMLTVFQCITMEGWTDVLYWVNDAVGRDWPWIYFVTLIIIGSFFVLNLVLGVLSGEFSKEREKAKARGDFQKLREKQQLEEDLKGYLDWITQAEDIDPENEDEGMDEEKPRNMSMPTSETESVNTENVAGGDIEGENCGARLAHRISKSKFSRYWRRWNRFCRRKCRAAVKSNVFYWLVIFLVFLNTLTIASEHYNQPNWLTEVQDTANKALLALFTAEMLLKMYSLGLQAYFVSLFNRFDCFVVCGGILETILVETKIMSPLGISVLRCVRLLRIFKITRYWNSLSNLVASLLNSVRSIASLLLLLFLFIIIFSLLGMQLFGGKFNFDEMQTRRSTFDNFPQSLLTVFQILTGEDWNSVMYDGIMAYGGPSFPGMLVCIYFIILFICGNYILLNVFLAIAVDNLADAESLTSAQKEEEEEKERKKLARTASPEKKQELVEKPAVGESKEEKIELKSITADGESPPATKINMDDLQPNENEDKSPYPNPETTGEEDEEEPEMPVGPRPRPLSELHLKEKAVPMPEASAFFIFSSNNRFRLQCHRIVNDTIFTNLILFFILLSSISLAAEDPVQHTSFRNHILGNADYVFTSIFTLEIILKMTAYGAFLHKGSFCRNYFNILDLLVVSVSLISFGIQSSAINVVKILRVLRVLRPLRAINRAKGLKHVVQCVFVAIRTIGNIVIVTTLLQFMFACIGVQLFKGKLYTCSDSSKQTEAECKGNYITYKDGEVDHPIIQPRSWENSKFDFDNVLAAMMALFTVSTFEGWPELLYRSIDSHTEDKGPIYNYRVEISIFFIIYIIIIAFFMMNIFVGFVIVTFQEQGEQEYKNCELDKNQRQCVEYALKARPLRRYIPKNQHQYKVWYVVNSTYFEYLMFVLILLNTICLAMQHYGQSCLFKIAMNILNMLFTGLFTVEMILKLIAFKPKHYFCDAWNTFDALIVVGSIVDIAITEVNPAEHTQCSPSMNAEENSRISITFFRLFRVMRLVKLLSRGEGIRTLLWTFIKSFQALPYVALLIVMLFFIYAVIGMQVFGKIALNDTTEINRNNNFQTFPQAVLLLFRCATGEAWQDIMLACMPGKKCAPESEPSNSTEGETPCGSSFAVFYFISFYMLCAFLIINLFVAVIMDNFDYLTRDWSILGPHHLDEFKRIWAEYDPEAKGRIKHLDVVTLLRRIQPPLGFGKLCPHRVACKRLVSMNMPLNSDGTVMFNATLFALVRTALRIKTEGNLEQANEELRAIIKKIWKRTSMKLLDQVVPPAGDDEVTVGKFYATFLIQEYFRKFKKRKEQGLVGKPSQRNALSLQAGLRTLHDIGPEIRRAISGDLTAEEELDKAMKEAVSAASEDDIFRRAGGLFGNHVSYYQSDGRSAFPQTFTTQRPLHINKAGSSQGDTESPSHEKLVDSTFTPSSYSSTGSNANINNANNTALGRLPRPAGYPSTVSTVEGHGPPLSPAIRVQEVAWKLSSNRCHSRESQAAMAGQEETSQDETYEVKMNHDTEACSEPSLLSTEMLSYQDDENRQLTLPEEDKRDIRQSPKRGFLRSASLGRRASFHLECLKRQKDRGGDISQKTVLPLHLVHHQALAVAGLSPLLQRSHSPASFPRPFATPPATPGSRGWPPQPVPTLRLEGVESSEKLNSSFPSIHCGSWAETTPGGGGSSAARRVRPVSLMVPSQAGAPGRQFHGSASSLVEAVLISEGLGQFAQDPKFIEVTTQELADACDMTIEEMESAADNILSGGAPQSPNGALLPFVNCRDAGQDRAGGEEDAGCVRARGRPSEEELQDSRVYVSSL

[4] = target: Human CaV1.2-Y437A (human)

Sequence of CaVβ3 (expressed in oocytes) (P54286 whole entry): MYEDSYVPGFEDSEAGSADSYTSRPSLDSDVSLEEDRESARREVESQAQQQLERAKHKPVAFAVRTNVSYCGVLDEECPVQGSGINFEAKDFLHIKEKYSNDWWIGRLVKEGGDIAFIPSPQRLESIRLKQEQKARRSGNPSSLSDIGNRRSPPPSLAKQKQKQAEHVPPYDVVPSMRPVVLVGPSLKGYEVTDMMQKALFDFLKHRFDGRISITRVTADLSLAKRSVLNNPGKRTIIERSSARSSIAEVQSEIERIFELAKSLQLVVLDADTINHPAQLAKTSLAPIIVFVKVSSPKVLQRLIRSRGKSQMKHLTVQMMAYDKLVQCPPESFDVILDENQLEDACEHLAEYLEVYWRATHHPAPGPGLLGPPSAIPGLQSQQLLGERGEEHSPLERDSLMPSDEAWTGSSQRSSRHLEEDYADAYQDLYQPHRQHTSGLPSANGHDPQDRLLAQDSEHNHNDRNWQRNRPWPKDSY
Sequence of CaV1.2 AID peptide AID (Q13936 425-448): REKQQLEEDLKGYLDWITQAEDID

Kd [1]: 6.6 nM
dH [1]: -15.6 kcal mol^–1
stoichiometry N [1]: 0.94
Substance: CaV1.2 AID peptide (α-interaction domain, unmodified)

Substance: CaV1.2 AID peptide AID (from UniProt Q13936)
Kd [2]: 5.3 nM

Substance: CaVβ3 (expressed in oocytes) (from UniProt P54286 1-477) (natural protein)
time constant τ for the loss of CaV1.2:CaVβ3 channels (rundown of Imax, single exponential fit) after injection of 2.8 mM AID peptide [3]: 4.6 min
time constant τ for the loss of CaV1.2:CaVβ3 channels (rundown of Imax, single exponential fit) after injection of 2.8 mM AID-CAP peptide [3]: 5.3 min

Substance: Rat CaVβ2a (expressed in oocytes) (natural protein)
time constant τ of the rundown of Imax of CaV1.2-Y437A:CaVβ2a currents after injection of 400 μM AID peptide (single exponential fit) [4]: 5.3 min
time constant τ of the rundown of Imax of CaV1.2-Y437A:CaVβ2a currents after injection of 400 μM AID-CAP peptide (single exponential fit) [4]: 4.1 min
